The labels stand for the following.
B1: Rpn13 extreme C-terminal pentapeptide (DMSLD; residues 403-407) (peptide)
peptide: DMSLD
notes: also called DMSLD peptide; DMSLD pentapeptide; source: synthetic peptide, bought: Alta BioScience (Birmingham, UK)
B3: TPR domain of SGTA (small, glutamine-rich, tetratricopeptide repeat protein alpha), residues 84-211 (domain or fragment, human, UniProt O43765 84-211, looked up)
chain: SEEDSAEAERLKTEGNEQMKVENFEAAVHFYGKAIELNPANAVYFCNRAAAYSKLGNYAGAVQDCERAICIDPAYSKAYGRMGLALSSLNKHVEAVAYYKKALELDPDNETYKSNLKIAELKLREAPS
notes: human SGTA, central TPR domain, residues 84-211; 15N-labelled (M9 medium) where it was the observed species in NMR; unlabelled otherwise; not shown: thioredoxin A (TxA), N-terminal, cleaved; His6, N-terminal, cleaved

The target in series [1] is SGTA-V5 (UniProt O43765).
In series [2] the target is B3. In words: ITC; SGTA_TPR at 1 mM injected into Rpn13 or DMSLD peptide at 50 μM in the cell; 25 °C, 10 mM potassium phosphate pH 6.0, 100 mM NaCl, 250 μM TCEP; one site assumed (n = 1). Conditions: both partners purified.
The target of series [3] is T1, TPR domain of SGTA (SGTA_TPR) (Homo sapiens, UniProt O43765).
T1 construct: thioredoxin A (TxA) fusion (N, cleaved yes); hexahistidine tag (N, cleaved yes); made in house; host or cells: E. coli BL21(DE3) Rosetta
In words: Solution NMR CSP titration of unlabelled ligand into 15N-labelled SGTA_TPR. Conditions: unlabelled ligand into 15N-labelled SGTA_TPR; pH 6.0, 25 °C; Rpn13_260-407 up to 8 equivalents, Rpn13_260-402 up to 6-fold molar excess. Type of series: binding. As to the method:
In order to understand molecular details underlying the interaction between SGTA and Rpn13, solution NMR studies were carried out on excised domains of SGTA and Rpn13 guided by earlier mapping studies. Reciprocal chemical shift perturbation (CSP) experiments were performed by titrating unlabelled Rpn13 C-terminal domain (residues 260–407; hereafter described as Rpn13_260-407) into ^15N-labelled TPR domain of SGTA (residues 84–211; hereafter referred to as SGTA_TPR) and vice versa. Assignments of backbone amide resonances were obtained from the BMRB (accession numbers 5709 and 17286, for SGTA_TPR and Rpn13_260-407, respectively). The ^1H-^15N HSQC spectra of both SGTA_TPR and Rpn13_260-407 show binding in a fast exchange regimen (Figs 1A and 2A). […] Binding was further confirmed by size-exclusion chromatography (SEC) and isothermal titration calorimetry (ITC) (Fig. 1C,D). […] ITC experiments yield a dissociation constant of 16.1 ± 1.4 μM in keeping with the value obtained from NMR.
Protein samples at concentrations between 300 μM and 1 mM were prepared in 10% D2O (Sigma Aldrich), 10 mM potassium phosphate pH 6.0, 100 mM NaCl and 250 μM TCEP buffer (with 10 μM DSS for proton chemical shift referencing). All NMR experiments were acquired in 5 mm NMR tubes at 25 °C on 500 MHz and 700 MHz Bruker Avance spectrometers equipped with cryoprobes and operated by the TopSpin 3.1 software package. All NMR spectra were processed with TopSpin and analysed with CcpNMR Analysis[35]. Proteins used for NMR titrations were dialysed overnight against the same buffer (10 mM potassium phosphate pH 6.0, 100 mM NaCl and 250 μM TCEP) and mixed in different molar ratios, with the concentration of the labelled protein maintained constant. ^1H-^15N HSQC experiments were recorded for each titration point at 25 °C. Chemical shift perturbation (CSP) values were calculated for each amide signal using the following formula: […]
where Δδ1H and Δδ15N are the chemical shift differences for the same amide in its free and bound state (δfree−δbound) and for proton and nitrogen chemical shift values respectively. […]

In series [4] the target is T1, TPR domain of SGTA (SGTA_TPR). Description: Isothermal titration calorimetry (ITC), SGTA_TPR titrated into Rpn13 or DMSLD peptide. It counts as binding. The note with it: 20 injections of 2 μL of 1 mM SGTA_TPR into 50 μM Rpn13_260-402, pH 6.0, 25 °C. As to the method:
ITC experiments were performed using an ITC-200 microcalorimeter from Microcal (GE Healthcare) at 25 °C following the standard protocol as reported previously. Proteins or peptide samples were prepared in 10 mM potassium phosphate pH 6.0, 100 mM NaCl, 250 μM TCEP. In each titration, either 40 injections of 1 μL or 20 injections of 2 μL of SGTA_TPR each, at a concentration of 1 mM, were added to a sample of Rpn13 or the Rpn13 derived DMSLD peptide at a concentration of 50 μM in the reaction cell. A nonlinear least-squares minimization algorithm was applied to integrated heat data obtained for the titrations, corrected for heats of dilution, in order to fit the experimentally obtained values to a theoretical titration curve. This was performed using the MicroCal-Origin 7.0 software package. ΔH (reaction enthalpy change in kcal/mol), Kb (equilibrium binding constant in per molar), and n (molar ratio between the proteins in the complex) were used as fitting parameters. The reaction entropy, ΔS, was calculated using the relationships ΔG = −RT lnKb (R = 8.314 J/(mol K), T 298 K) where ΔG = ΔH − TΔS. Dissociation constants (Kd) have been determined for each interaction. Binding was assumed to be at one site (n = 1), to determine the binding affinity (Kd) and thermodynamic parameters.

Series [5] has the same target. In words: Size exclusion chromatography (SEC) complex formation with SGTA_TPR. Type of series: binding. The note with it: mixed in 1:1 molar ratio. How it is done: In order to understand molecular details underlying the interaction between SGTA and Rpn13, solution NMR studies were carried out on excised domains of SGTA and Rpn13 guided by earlier mapping studies. Reciprocal chemical shift perturbation (CSP) experiments were performed by titrating unlabelled Rpn13 C-terminal domain (residues 260–407; hereafter described as Rpn13_260-407) into ^15N-labelled TPR domain of SGTA (residues 84–211; hereafter referred to as SGTA_TPR) and vice versa. Assignments of backbone amide resonances were obtained from the BMRB (accession numbers 5709 and 17286, for SGTA_TPR and Rpn13_260-407, respectively). The ^1H-^15N HSQC spectra of both SGTA_TPR and Rpn13_260-407 show binding in a fast exchange regimen (Figs 1A and 2A). […] Binding was further confirmed by size-exclusion chromatography (SEC) and isothermal titration calorimetry (ITC) (Fig. 1C,D). […]
SGTA_TPR and Rpn13 plasmids were transformed into E. coli BL21(DE3) Rosetta cells, with protein expression induced by adding 0.3–0.5 mM isopropyl-β-D-thiogalactopyranoside (IPTG) to bacterial cultures in LB media at OD600 ≈ 0.8, followed by overnight incubation at 18 °C. […] Proteins were concentrated using Vivaspin concentrators (Sartorius Stedin) and sample purity and homogeneity was assessed by SDS-PAGE, mass spectrometry and NMR. […]

In series [6] the target is T2, Rpn13 C-terminal domain, residues 260-407 (human, UniProt Q16186 260-407).
T2 construct: 15N-labelled where it was the observed species in NMR; unlabelled otherwise; not shown: thioredoxin A (TxA), N-terminal, cleaved; His6, N-terminal, cleaved
Description: NMR titration; 1H-15N HSQC chemical shift perturbation; unlabelled SGTA_TPR (wild type or K160E/R164E) titrated into 15N-labelled Rpn13_(260-407); 25 °C, 10 mM potassium phosphate pH 6.0, 100 mM NaCl, 250 μM TCEP. The note with it: both partners purified.

Series [7] concerns the target T2, Rpn13 C-terminal domain, residues …. Description: ITC; SGTA_TPR at 1 mM injected into Rpn13 or DMSLD peptide at 50 μM in the cell; 25 °C, 10 mM potassium phosphate pH 6.0, 100 mM NaCl, 250 μM TCEP; one site assumed (n = 1). The note with it: both partners purified. A general note: Isothermal titration calorimetry measures the heat released or taken up as one component is titrated into another.

In series [8] the target is B1. The description is as above. Conditions: both partners purified.
Series [9] deals with T3, spin labelled K398C Rpn13_(260-407) mutant (human, UniProt Q16186 260-407, K398C, paramagnetic MTSL or diamagnetic dMTSL label incorporated via the K398C cysteine).
T3 construct: The paramagnetic and the diamagnetic sample are written as one molecule: the PRE read-out is the ratio of the two; source: E. coli BL21(DE3) Rosetta, purified, then labelled with MTSL or dMTSL; not shown: thioredoxin A (TxA), N-terminal, cleaved; His6, N-terminal, cleaved
In words: NMR paramagnetic relaxation enhancement; 15N-labelled SGTA_TPR mixed with MTSL or dMTSL labelled K398C Rpn13_(260-407) at a 1:1.2 ratio, 200 μM; 10 mM potassium phosphate pH 6.0, 100 mM NaCl; 1H-15N HSQC. Conditions: both partners purified.

Sequence of SGTA-V5 (O43765 whole entry): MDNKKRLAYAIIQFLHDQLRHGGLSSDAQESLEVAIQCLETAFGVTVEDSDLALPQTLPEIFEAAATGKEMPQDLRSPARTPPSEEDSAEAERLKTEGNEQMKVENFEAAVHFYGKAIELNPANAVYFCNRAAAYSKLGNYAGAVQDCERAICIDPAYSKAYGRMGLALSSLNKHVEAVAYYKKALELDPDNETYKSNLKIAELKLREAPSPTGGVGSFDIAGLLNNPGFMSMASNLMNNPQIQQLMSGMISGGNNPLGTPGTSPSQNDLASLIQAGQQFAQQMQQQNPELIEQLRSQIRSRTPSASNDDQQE

The molecule “FLAG tagged mouse Rpn13 (150-402) (from UniProt Q9JKV1 150-402) (domain or fragment)” came in with a fold increase of steady state OP91 level (quantitative western blot) in HeLa TRex Flp-In cells co-expressing SGTA-V5 and Rpn13 (150-402), against the Rpn13 (150-407) control in [1] of 3 fold.

Consider B1, for which binding in series [2] was put at a Kd of 71.9 ± 13.3 µM.

B2: Rpn13_260-402: Rpn13 construct devoid of the C-terminal pentapeptide (residues 260–402) (protein)
chain: QPIQLSDLQSILATMNVPAGPAGGQQVDLASVLTPEIMAPILANADVQERLLPYLPSGESLPQTADEIQNTLTSPQFQQALGMFSAALASGQLGPLMCQFGLPAEAVEAANKGDVEAFAKAMQNNAKPEQKEGDTKDKKDEEE
modifications: left off: thioredoxin A (TxA), N-terminal, cleaved | His6, N-terminal, cleaved
As for B2, in series [3], the “CSP of SGTA_TPR backbone amide signals, result in words” value is listed as “no perturbation of SGTA_TPR backbone amide signals”. Moreover, the figures for the “ITC binding, result in words” value in [4] and in series [4] (listed as Rpn13260-402) were “abrogation of binding with SGTA_TPR” and “does not interact”, respectively. Also, in [5], the “SEC complex formation with SGTA_TPR” value was “no evidence of an interaction”.

As for B3, the Kd – broadly, the free concentration of one partner at which half of the binding sites on the other are occupied at equilibrium, for simple one-to-one binding – in series [6] was found to be 3.27 ± 0.87 µM; in series [7], 16.1 ± 1.4 µM. Besides, the results for the dH in [7] and in [8] were -3.37 ± 0.08 kcal/mol and -4.97 ± 0.41 kcal/mol, respectively. In addition, the binding result in [9] was “binds”.

For the origin of these results see article PMC5101480 (Scientific Reports, 2016).
